These are literature values, as cited in publication PMC12608641.

The Kd is the equilibrium constant for the complex coming apart.

In the series the target is p55 (Homo sapiens) (UniProt Q9UHN1). Kind of series: ultracentrifugation.

With p55 (from UniProt Q9UHN1), the Kd was less than 0.1 nM.
